Results from article PMC8211825, “Molecular mechanism of calcium induced trimerization of C1q-like domain of otolin-1 from human and zebrafish” (Scientific Reports, 2021).
Substitutions are numbered along the chain they refer to. Names and notes keep the numbering of the source.

B1: dOtolC1q D432A (domain or fragment, zebrafish (Danio rerio), UniProt A5PN28 351-488, looked up)
chain: AVQKRSAFSVGLFPSRSFPPPGLPIRFDKIIYNEEAHWDPNASKFNCTHGGVYVFSYYITVRNRPLRAALVVNGIRKLRTRASLYGQDIDQASNMAVLRLSSGDQVWLETLRDWNGVYSSSEDDSTFSGFLLYADATK
notes: gC1q (C1q-like) domain of zebrafish otolin-1, UniProt A5PN28, with D432A; Same construct as m6 with the mutation
B2: dOtolC1q D432A D440A (domain or fragment, zebrafish (Danio rerio), UniProt A5PN28 351-488, looked up)
chain: B1 chain with D90A
notes: gC1q (C1q-like) domain of zebrafish otolin-1, UniProt A5PN28, with D432A and D440A; Same construct as m6 with the two mutations; also called double mutant
B3: dOtolC1q D440A (domain or fragment, zebrafish (Danio rerio), UniProt A5PN28 351-488, looked up)
chain: B1 chain with A82D, D90A
notes: gC1q (C1q-like) domain of zebrafish otolin-1, UniProt A5PN28, with D440A; Same construct as m6 with the mutation
B4: hOtolC1q E417A (domain or fragment, human, UniProt A6NHN0 338-473, looked up)
chain: ARVPRSAFSAGLSKPFPPPNIPIKFEKILYNDQGNYSPVTGKFNCSIPGTYVFSYHITVRGRPARISLVAQNKKQFKSRATLYGQEIDQASLLVILKLSAGDQVWLEVSKDWNGVYVSAEDDSIFTGFLLYPEETS
notes: gC1q (C1q-like) domain of human otolin-1, UniProt A6NHN0, with E417A
B5: hOtolC1q D425A (domain or fragment, human, UniProt A6NHN0 338-473, looked up)
chain: B4 chain with A80E, D88A
notes: gC1q (C1q-like) domain of human otolin-1, UniProt A6NHN0, with D425A
B6: hOtolC1q E417A D425A (domain or fragment, human, UniProt A6NHN0 338-473, looked up)
chain: B4 chain with D88A
notes: gC1q (C1q-like) domain of human otolin-1, UniProt A6NHN0, with E417A and D425A; also called double mutant

Target: the molecule itself
Test: AUC; sedimentation velocity, c(s) analysis in SEDFIT; sevenfold (hOtolC1q forms) or 14-fold (dOtolC1q forms) molar excess of TbCl3; protein 0.20-0.25 mg/mL; self-association of the gC1q domain into trimers

| Protein | stoichiometry N |
| --- | --- |
| B1 | 3 |
| B2 | 3 |
| B3 | 3 |
| B4 | 3 |
| B5 | 3 |
| B6 | 3 |
